A short description of the data set: self-splicing fitness, log relative to wild type (ln ratio); higher = more splicing; Tetrahymena group I intron in knt gene, E. coli kanamycin selection, DiMSum; sequences stand for … in CUCUCU…GGAGGGAAAAGUUAUCAGGCAUGCACCUGGUAGCUAGUCUUUAAACCAAUAGAUUGCAUCGGUUUAAAAGGCAAGACCGUCAAAUUGCGGGAAAGGGGUCAACAGCCGUUCAGUACCAAGUCUCAGGGGAAACUUUGAGAUGGCCUUGCAAAGGGUAUGGUAAUAAGCUGACGGACAUGGUCCUAACCACGCAGCCAAGUCCUAAGUCAACAGAUCUUCUGUUGAUAUGGAUGCAGUUCACAGACUAAAUGUCGGUCGGGGAAGAUGUAUUCUUCUCAUAAGAUAUAGUCGGACCUCUCCUUAAUGGGAGCUAGCGGAUGAAGUGAUGCAACACUGGAGCCGCUGGGAACUAAUUUGUAUGCGAAAGUAUAUUGAUUAGUUUUGGAGUACUCGUGGUCG
A digest of the protocol:
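DiMSum derived fitness as the error-weighted combination of fold changes across replicates, kanamycin versus no kanamycin, normalised to wild type. E. coli BL21(DE3) held the library, which randomised all eight P1ex-region intron nucleotides within the knt kanamycin-resistance gene on pET-22b(+). Six replicate transformations grew overnight at 37°C or 30°C on LB agar with or without 25 μg/mL kanamycin, also containing 100 μg/mL carbenicillin, 50 μM IPTG and 0.2% rhamnose, and pooled colonies were amplicon-sequenced on an Illumina HiSeq 2500.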

± gives the uncertainty stated by the source.

With GUCCAGCAAUAUUACGAGAU, the “self-splicing fitness (ln)” value was -2.92 ± 0.13 (30 °C) and -1.32 ± 0.11 (37 °C).
Take GUCCAGCAAUAUUACGAUGG: the “self-splicing fitness (ln)” value (30 °C) was -3.74 ± 0.16 and the “self-splicing fitness (ln)” value (37 °C) was -3.37 ± 0.25.
Consider GUCCAGCAAUAUUACGCCGA, for which the “self-splicing fitness (ln)” value was -1.78 ± 0.22 (30 °C) and -2.03 ± 0.14 (37 °C).
With GUCCAGCAAUAUUACGCGAA, the “self-splicing fitness (ln)” value was -1.21 ± 0.11 (30 °C) and 0.483 ± 0.11 (37 °C).
Consider GUCCAGCAAUAUUACGCGGC, for which the “self-splicing fitness (ln)” value runs as follows: (30 °C) -2.27 ± 0.26; (37 °C) -2.6 ± 0.48.
On the same counts, the results for GUCCAGCAAUAUUACGCUAG are -1.18 ± 0.076 and -0.908 ± 0.1.
The corresponding values for GUCCAGCAAUAUUACGCUUG are -1.57 ± 0.079 and -1.31 ± 0.09.
As for GUCCAGCAAUAUUACGGCUU, the “self-splicing fitness (ln)” value runs as follows: (30 °C) -0.269 ± 0.068; (37 °C) 0.16 ± 0.087.
The corresponding values for GUCCAGCAAUAUUACGGGCA are -2.25 ± 0.21 and -1.85 ± 0.18.
In the case of GUCCAGCAAUAUUACGGGCU, for the setting “30 °C”, the “self-splicing fitness (ln)” value is -2.54 ± 0.31.
In the case of GUCCAGCAAUAUUACGGGGG, the “self-splicing fitness (ln)” value by setting is: (30 °C) -2.01 ± 0.1; (37 °C) -1.55 ± 0.14.
The corresponding values for GUCCAGCAAUAUUACGGUCC are -3.66 ± 0.35 and -2.68 ± 0.29.
For the sequence GUCCAGCAAUAUUACGGUUG, the “self-splicing fitness (ln)” value is, setting by setting: (30 °C) -1 ± 0.067; (37 °C) -0.214 ± 0.091.
On the same counts, the results for GUCCAGCAAUAUUACGUACG are -1.58 ± 0.07 and -1.14 ± 0.1.
On the same counts, the results for GUCCAGCAAUAUUACGUCUA are -0.899 ± 0.11 and -0.668 ± 0.12.
The corresponding values for GUCCAGCAAUAUUACGUUCG are -1.26 ± 0.055 and -0.749 ± 0.079.
In the case of GUCGAGCAAUAUUACGAAAA, the “self-splicing fitness (ln)” value (37 °C) is -2.58 ± 0.41.
As for GUCGAGCAAUAUUACGAAGG, the “self-splicing fitness (ln)” value (30 °C) was -3.61 ± 0.47.
Turning to GUCGAGCAAUAUUACGAAUG, the “self-splicing fitness (ln)” value runs as follows: (30 °C) -4.06 ± 0.35; (37 °C) -0.777 ± 0.2.
Regarding GUCGAGCAAUAUUACGAAUU, the “self-splicing fitness (ln)” value reads like this: (30 °C) -3.05 ± 0.32; (37 °C) -0.878 ± 0.19.
On the same counts, the results for GUCGAGCAAUAUUACGACAA are -1.97 ± 0.24 and -2.85 ± 0.4.
Consider GUCGAGCAAUAUUACGAGAU, for which, for the setting “37 °C”, the “self-splicing fitness (ln)” value is -2.45 ± 0.39.
The same measure, in the same setting: the result for GUCGAGCAAUAUUACGAGGA reads -2.44 ± 0.49.
GUCGAGCAAUAUUACGAUAC: the “self-splicing fitness (ln)” value by setting is: (30 °C) -0.265 ± 0.28; (37 °C) -0.381 ± 0.24.
On the same counts, the results for GUCGAGCAAUAUUACGCAAG are -3.6 ± 0.27 and -2.71 ± 0.3.
The corresponding values for GUCGAGCAAUAUUACGCACA are -1.76 ± 0.21 and -0.707 ± 0.18.
On the same counts, the results for GUCGAGCAAUAUUACGCGCA are -0.713 ± 0.26 and -1.17 ± 0.21.
GUCGAGCAAUAUUACGCGUA: the “self-splicing fitness (ln)” value runs as follows: (30 °C) -1.26 ± 0.14; (37 °C) -0.913 ± 0.11.
On the same counts, the results for GUCGAGCAAUAUUACGGAUG are -1.27 ± 0.095 and -0.69 ± 0.13.
The corresponding values for GUCGAGCAAUAUUACGGUAU are -1.34 ± 0.084 and -0.615 ± 0.12.
The corresponding values for GUCGAGCAAUAUUACGGUCC are -3.17 ± 0.22 and -0.877 ± 0.17.
On to GUCGAGCAAUAUUACGGUUC, for which the “self-splicing fitness (ln)” value reads like this: (30 °C) -2.27 ± 0.14; (37 °C) -1.73 ± 0.17.
The corresponding values for GUCGAGCAAUAUUACGUAAA are -2.73 ± 0.29 and -0.959 ± 0.27.
The corresponding values for GUCGAGCAAUAUUACGUACG are -2.29 ± 0.26 and -2.44 ± 0.41.
The corresponding values for GUCGAGCAAUAUUACGUACU are -2.83 ± 0.29 and -0.966 ± 0.21.
In the case of GUCGAGCAAUAUUACGUAUC, the “self-splicing fitness (ln)” value runs as follows: (30 °C) -0.209 ± 0.13; (37 °C) -1.42 ± 0.15.
On the same counts, the results for GUCGAGCAAUAUUACGUCCG are -4 ± 0.43 and -0.959 ± 0.3.
GUCGAGCAAUAUUACGUCGG: where the note is “37 °C”, the “self-splicing fitness (ln)” value was -2.34 ± 0.22.
For the sequence GUCGAGCAAUAUUACGUCUG, the “self-splicing fitness (ln)” value is, setting by setting: (30 °C) -3.5 ± 0.43; (37 °C) -2.51 ± 0.3.
On the same counts, the results for GUCGAGCAAUAUUACGUUAC are -3.38 ± 0.22 and -1.49 ± 0.27.

These data come from the supplement of paper PMC7877785.
